Test results as given in PMC3043092.

What was measured:
[1] = target: Pisum sativum thioredoxin f (Pisum sativum); assay: SEC; Superdex 75 HR 16/60, 1 ml/min, 25°C; 100 µl at 24 µM loaded; 50 mM buffer with 150 mM NaCl, pH >= 7.0; no reducing agent
[2] = target: Pisum sativum thioredoxin h1 (Pisum sativum); assay: as above

Row | stoichiometry N [1] | stoichiometry N [2] | Substance
1 | 2 |  | Pisum sativum thioredoxin f (natural protein)
2 |  | 2 | Pisum sativum thioredoxin h1 (natural protein)
